This is an account of results in patent US20250340857A1 (SEISMIC THERAPEUTIC, published 2025).

This assay deals with Human IgE antibody (human). Nature of the assay: cell-based or functional assay.

B1: FP145 (Fc fusion)
chain: DKTHTCPPCPAPEAAGAPSVFLFPPKPKDTLMISRTPEVTCVVVDVSHEDPEVKFNWYVDGVEVHNAKTKPREEQQNSTYRVVSVLTVLHQDWLNGKEYKCKVSNKALKAPIEKTISKAKGQPREPQVYTLPPSRDELTKNQVSLTCLVKGFYPSDIAVEWESNGQPENNYKTTPPVLDSDGSFFLYSKLTVDKSRWQQGNVFSCSVMHEALHNHYTQKSLSLSPGGGGSGGGGSGGGGSTALGRRKAEDRIKETLWADGVKIDEKDFEHIKSSHEDYFAVEYGKGSGYYDVNKKMDSEDSALCVGAVVTNMFHWWVDQNRENIEKFKKQDPENNGVMKFEGVKEATVDELNEFYRDNRDNYADQSRFFDLIKKHFGNKALNPEELFELYFNGFYYGSSHRYIEDNEPAQNNLFSKVLENNKLLNPERSYGIDGFSNNVINALKSHKVLGLVYTTPLRYRHIISMWGADIDQDGKVKAIYVTDSDDREITFNDNSKRRIGMIRYDVLVDDNGNIRFTGKGATHKEEGAIYAGLYSLSRGDEVWEDYFKKYPEVQENL
Turning to B1, the “EC50 CE-SDS IgE” value turned out to be 1.45 nM and the “EC50 MSD IgE” value turned out to be 0.654 nM.

B2: FP159 (Fc fusion)
chain: DKTHTCPPCPAPEAAGAPSVFLFPPKPKDTLMISRTPEVTCVVVDVSHEDPEVKFNWYVDGVEVHNAKTKPREEQQNSTYRVVSVLTVLHQDWLNGKEYKCKVSNKALKAPIEKTISKAKGQPREPQVYTLPPSRDELTKNQVSLTCLVKGFYPSDIAVEWESNGQPENNYKTTPPVLDSDGSFFLYSKLTVDKSRWQQGNVFSCSVMHEALHNHYTQKSLSLSPGGGGSGGGGSGGGGSTALGRRKAEDRIKETLWADGVKIDEKDFEHIKSSHEDYFAVEYGKGSGYYDVNKKMDSEDTALCVGAVVTNMFHWWVDQNRENIEKFKKQDPENNGVMKFEGVKEATVDELNEFYRDNRDNYADQSRFFDLIKKHFGNKALNPEELFELYFNGFYYGSSHRYIEDNEPAQNNLFSKVLENNKLLNPERSYGIDGFSNNVINALKSHKVLGLVYTTPLRYRHIISMWGADIDQDGKVKAIYVTDSDDREITFNDNSKRRIGMIRYDVLVDKNGNIRFTGKGATHKNEGAIYAGLYSLSRGDEVWEDYFKKYPEVQENL
As to B2, the “EC50 CE-SDS IgE” value was 2.45 nM.

B3: FP146 (Fc fusion)
chain: DKTHTCPPCPAPEAAGAPSVFLFPPKPKDTLMISRTPEVTCVVVDVSHEDPEVKFNWYVDGVEVHNAKTKPREEQQNSTYRVVSVLTVLHQDWLNGKEYKCKVSNKALKAPIEKTISKAKGQPREPQVYTLPPSRDELTKNQVSLTCLVKGFYPSDIAVEWESNGQPENNYKTTPPVLDSDGSFFLYSKLTVDKSRWQQGNVFSCSVMHEALHNHYTQKSLSLSPGGGGSGGGGSGGGGSTALGRRKAEDRIKETLWADGVKIDEKDFEHIKSSHEDYFAVEYGKGSGYYDVNKKMDSEDTALCVGAVVTNMFHWWVDQNRENIEKFKKQDPENNGVMKFEGVKEATVDELNEFYRDNRDNYADQSRFFDLIKSHFGNKALNPEELFELYFNGFYYGSSHRYIEDNEPAQNNLFSKVLENNKLLNPERSYGIDGFSNNVINALKSHKVLGLVYTTPLRYRHIISMWGADIDQDGKVKAIYVTDSDDREITFNDNSARRIGMIRYDVLVDDNGNIRFTGKGATHKEEGAIYAGLYSLSRGDEVWEDYFKKYPEVQENL
For B3, the “EC50 CE-SDS IgE” value came out at 1.58 nM.

B4: FP150 (Fc fusion)
chain: DKTHTCPPCPAPEAAGAPSVFLFPPKPKDTLMISRTPEVTCVVVDVSHEDPEVKFNWYVDGVEVHNAKTKPREEQQNSTYRVVSVLTVLHQDWLNGKEYKCKVSNKALKAPIEKTISKAKGQPREPQVYTLPPSRDELTKNQVSLTCLVKGFYPSDIAVEWESNGQPENNYKTTPPVLDSDGSFFLYSKLTVDKSRWQQGNVFSCSVMHEALHNHYTQKSLSLSPGGGGSGGGGSGGGGSTALGRRKAEDRIKETLWADGVKIDEKDFEHIKSSHEDYFAVEYGKGSGYYDVNKKMDSEDTALCVGAVVTNMFHWWVDQNRENIEKFKKQDPENNGVMKFEGVKEATVDELNEFYRDNRDNYADQSRFFDLIKKHFGNKALNPEELFELYFNGFYYGSSHRYIEDNEPAQGNLFSKVLENNKLLNPERSYGIDGFSNNVINALKSHKVLGLVYTTPLRYRHIISMWGADIDQDGKVKAIYVTDSDDREITFNDNSKRRIGMIRYDVLVDDNGNIRFTGKGATHKEEGAIYAGLYSLSRGDEVWEDYFKKYPEVQENL
Regarding B4, the “EC50 CE-SDS IgE” value was 1.15 nM and the “EC50 MSD IgE” value stood at 2.2 nM.

B5: FP158 (Fc fusion)
chain: DKTHTCPPCPAPEAAGAPSVFLFPPKPKDTLMISRTPEVTCVVVDVSHEDPEVKFNWYVDGVEVHNAKTKPREEQQNSTYRVVSVLTVLHQDWLNGKEYKCKVSNKALKAPIEKTISKAKGQPREPQVYTLPPSRDELTKNQVSLTCLVKGFYPSDIAVEWESNGQPENNYKTTPPVLDSDGSFFLYSKLTVDKSRWQQGNVFSCSVMHEALHNHYTQKSLSLSPGGGGSGGGGSGGGGSTALGRRKAEDRIKETLWADGVKIDEKDFEHIKSSHEDYFAVEYGKGSGYYDVNKKMDSEDTALCVGAVVTNMFHWWVDQNRENIEKFKKQDPENNGVMKFEGVKEATVDELNEFYRDNRDNYADQSRFFDLIKKHFGNKALNPEELFELYFNGFYYGSSHRYIEDNEPAQNNLFSKVLENNKLLNPERSYGIDGFSNNVINALKSHKVLGLVYTTPLRYRHIISMWGADIDQDGKVKAIYVTDSDDREITFNDNSKRRIGMIRYDVLVDDNGNIRFTGKGATHKEEGAIYAGLYSLSRGDKVWKDYFKKYPEVQENL
In the case of B5, the “EC50 CE-SDS IgE” value was found to be 0.2 nM.

B6: FP147 (Fc fusion)
chain: DKTHTCPPCPAPEAAGAPSVFLFPPKPKDTLMISRTPEVTCVVVDVSHEDPEVKFNWYVDGVEVHNAKTKPREEQQNSTYRVVSVLTVLHQDWLNGKEYKCKVSNKALKAPIEKTISKAKGQPREPQVYTLPPSRDELTKNQVSLTCLVKGFYPSDIAVEWESNGQPENNYKTTPPVLDSDGSFFLYSKLTVDKSRWQQGNVFSCSVMHEALHNHYTQKSLSLSPGGGGSGGGGSGGGGSTALGRRKAEDRIKETLWADGVKIDEKDFEHIKSSHEDYFAVEYGKGSGYYDVNKKMDSEDTALCVGAVVTNMFHWWVDQNRENIEKFKKQDPENNGVMKFEGVKEATVDELNEFYRDNRDNYADQSRFFDLIKKHFGNKALNPEELFELYFNGFYYGSSQRYIEDNEPAQNNLFSKVLENNKLLNPERSYGIDGFSNNVINALKSHKVLGLVYTTPLEYRHIISMWGADIDQDGKVKAIYVTDSDDREITFNDNSKRRIGMIRYDVLVDDNGNIRFTGKGATHKEEGAIYAGLYSLSRGDEVWEDYFKKYPEVQENL
Take B6: the “EC50 CE-SDS IgE” value was found to be 3.1 nM.

B7: FP149 (Fc fusion)
chain: DKTHTCPPCPAPEAAGAPSVFLFPPKPKDTLMISRTPEVTCVVVDVSHEDPEVKFNWYVDGVEVHNAKTKPREEQQNSTYRVVSVLTVLHQDWLNGKEYKCKVSNKALKAPIEKTISKAKGQPREPQVYTLPPSRDELTKNQVSLTCLVKGFYPSDIAVEWESNGQPENNYKTTPPVLDSDGSFFLYSKLTVDKSRWQQGNVFSCSVMHEALHNHYTQKSLSLSPGGGGSGGGGSGGGGSTALGRRKAEDRIKETLWADGVKIDEKDFEHIKSSHEDYFAVEYGKGSGYYDVNKKMDSEDTALCVGAVVTNMFHWWVDQNRENIEKFKKQDPENNGVMKFEGVKEATVDELNEFYRDNRDNYADQSRFFDLIKKHFGNKALNPEELFELYFNGFYYGSSHRYIEDNEPAQNNLFSKVLENNKLLNPERSYGIDGFSNNVINALKSHKVLGLVYTTPLRYRHIISMWGADIDQDGKVKAIYVTDSDDREITFNDNSKRRIGMIRYDVLVDKNGNIRFTGKGATHKEEGAIYAGLYSLSRGDEVWEDYFKKYPEVQENL
Regarding B7, the “EC50 CE-SDS IgE” value came to 0.19 nM and the “EC50 MSD IgE” value is 0.708 nM.
